Results on three molecules are retold here after patent US20220073617A1 (Five Prime, published 2022).

The target in assay [1] is avidin (ThermoFisher Scientific catalog #21128) (UniProt P02701 25-152). Kind of assay: SPR 25C pH 6.0 and 7.4. The method, then: (§1) The binding specificity of the '029, '761 and '767 clones to VISTA and to other high pI proteins was evaluated by SPR at neutral and acidic pH using a Biacore® T100 instrument (GE Healthcare). Protein A (ThermoFisher Scientific catalog #21181) was diluted to 20 ug/ml in 10 mM sodium acetate pH 4.5 and immobilized onto flow cells of a CM3 biosensor following the manufacturer's amine coupling protocol (GE Healthcare), targeting 800 RU immobilization density of Protein A per flow cell. SPR experiments were conducted at 25° C. using PBST (137 mM sodium chloride, 2.7 mM potassium chloride, 10 mM phosphate buffer, 0.05% Tween 20) running buffer at pH 7.4 and 6.0. Antibodies (formatted as IgG1.3 antibodies) were diluted to 50 nM in PBST pH 7.4, and were captured across active biosensor flow cells at 5 ul/min for 60 seconds. […] Two 15 second injections of 10 mM glycine pH 1.5 were used to regenerate the Protein A capture surface between assay cycles. Reference flow cell and 0 nM blank-subtracted sensorgrams were inspected using Biacore® T200 Evaluation Software v.2.0. The results are shown in […]

The target of assay [2] is BSA (Calbiochem catalog #126593) (UniProt P02769 25-607). Kind of assay: SPR 25C pH 6.0 and 7.4. As for the experimental part: as §1
Assay [3] deals with T1, monovalent hVISTA-ECD (human VISTA extracellular domain with His tail) (human, UniProt Q9H7M9 33-193).
T1 construct: analyte flowed over captured antibody; also called huVISTA-His
Kind of assay: SPR, pH 6.0. In general terms: SPR reads the build-up and loss of mass on a sensor chip optically.

For assay [4], the target named is T2, cyno VISTA-ECD (cynomolgus VISTA extracellular domain with His tail) (cynomolgus macaque, UniProt Q9H7M9 33-193 (human entry)).
T2 construct: also called cyVISTA-His
T2 chain: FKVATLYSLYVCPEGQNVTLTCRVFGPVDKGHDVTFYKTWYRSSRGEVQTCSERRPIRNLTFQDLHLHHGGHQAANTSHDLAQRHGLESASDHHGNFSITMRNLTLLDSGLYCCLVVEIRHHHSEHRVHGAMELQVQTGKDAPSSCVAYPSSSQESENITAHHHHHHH
Kind of assay: SPR, pH 6.0.

The target in assay [5] is T1, monovalent hVISTA-ECD (human VISTA …). Kind of assay: SPR, pH 7.4.
Assay [6] addresses T2, cyno VISTA-ECD (cynomolgus VISTA …). Kind of assay: SPR, pH 7.4.
In assay [7] the target is T1, monovalent hVISTA-ECD (human VISTA …). Kind of assay: SPR, pH 6.0. As for the experimental part: (§2) Binding of several preparations of each of the '029 progeny clones and of the parent '029 antibodies, formatted as IgG1.3 antibodies, to human VISTA at pH 6.0 and 7.4 was measured by Surface plasmon resonance (SPR). SPR analysis was performed to measure koff and KD binding affinity measurements for VISTA Abs at acidic and neutral pHs using a Biacore® T100 instrument (GE Healthcare). Protein A (ThermoFisher Scientific catalog #21181) was diluted to 20 ug/ml in 10 mM sodium acetate pH 4.5 and immobilized onto flow cells of a CM5 biosensor following the manufacturer's amine coupling protocol (GE Healthcare), targeting 2,000 RU immobilization density of Protein A per flow cell. SPR experiments were conducted at 37° C. using PBST (137 mM sodium chloride, 2.7 mM potassium chloride, 10 mM phosphate buffer, 0.05% Tween® 20) running buffer at pH 7.4 and 6.0. Antibodies were diluted to 25 nM in PBST pH 7.4, and were captured across active biosensor flow cells at 5 ul/min for 60 seconds. […] Two 15 second injections of 10 mM glycine pH 1.5 were used to regenerate the Protein A capture surface between assay cycles. Rate constants ka (kₒₙ) and kd (koff) were derived from reference flow cell and 0 nM blank-subtracted sensorgrams, and were fit to a 1:1 binding model in Biacore® T200 Evaluation Software v.2.0. The affinity constant, KD was calculated as the ratio of rate constants koff/kₒₙ for each VISTA antibody.
This initial campaign led to pH-independent VISTA.4 variants with near equivalent koff at pH 6 and pH 7. In order to obtain an antibody that binds to hVISTA with high affinity at pH 6.0 and low affinity at pH 7.0, a new library based on consensus sequence of pH-independent VISTA.4 variants was designed and constructed, with amino acid residues in the loops substituted for charge amino acid residues (see Example 9), and screened via yeast surface display (see Example 9). The library was analyzed as previously described (see Example 9) and selected variants were reformatted as IgG1.3 for further analysis (Tables 26 and 27). SPR analysis was conducted on these variants using the conditions previously described in Example 9.
The source holds these as a separate data set.

For assay [8] the target is unchanged. Kind of assay: SPR, pH 6.0, average. The method, then: as §2, with “antibody. […]” for “antibody.”

Substitutions are numbered along the chain they refer to. Names and notes keep the numbering of the source.

BSA (Calbiochem catalog #126593), sequence (P02769 25-607 limits assumed): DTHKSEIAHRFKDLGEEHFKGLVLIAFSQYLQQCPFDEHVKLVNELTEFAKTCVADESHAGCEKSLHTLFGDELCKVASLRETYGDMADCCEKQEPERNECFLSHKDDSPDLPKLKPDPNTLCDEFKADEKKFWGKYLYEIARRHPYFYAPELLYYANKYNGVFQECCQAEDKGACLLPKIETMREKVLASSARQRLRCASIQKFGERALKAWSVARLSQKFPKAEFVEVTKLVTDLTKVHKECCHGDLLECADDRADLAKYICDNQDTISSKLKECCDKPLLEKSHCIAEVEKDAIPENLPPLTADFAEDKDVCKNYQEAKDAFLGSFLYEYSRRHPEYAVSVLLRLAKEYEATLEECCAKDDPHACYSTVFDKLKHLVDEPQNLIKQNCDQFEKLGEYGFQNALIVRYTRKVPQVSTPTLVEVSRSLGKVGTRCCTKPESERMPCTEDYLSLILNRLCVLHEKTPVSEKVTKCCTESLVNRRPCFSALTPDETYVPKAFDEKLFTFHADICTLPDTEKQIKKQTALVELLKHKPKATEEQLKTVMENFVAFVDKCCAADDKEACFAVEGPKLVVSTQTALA
avidin (ThermoFisher Scientific catalog #21128), sequence (P02701 25-152 limits assumed): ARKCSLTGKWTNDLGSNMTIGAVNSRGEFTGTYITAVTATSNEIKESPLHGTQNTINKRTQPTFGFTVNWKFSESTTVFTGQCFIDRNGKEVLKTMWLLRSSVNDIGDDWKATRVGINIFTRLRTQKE

B1: P1-068767.IgG1.3 (antibody, V domains shown)
VH: EVQLVESGGGLVQPGKSLRLSCAASGFTLEDYAMHWVRQAPGKGLEWVSGIDWNSENIGYADSVKGRFTISRDNAKNSLYLQMNSLRTEDTALYYCAKVPGYSGGWIDAEDDWGQGTMVTVSS
VL: not shown
notes: also called P1-068767 hIgG1.3f; VISTA.18
As to B1, the binding result is given as “no binding (tested: <=10 RU, 100-10 nM)” in assay [1] and “no binding (tested: <=10 RU, 100-10 nM)” in assay [2].

B2: P1-072315 (41F11_VH_T28P/Y50W/S55E/L96E/Y100E VK_A64G) (antibody, V domains shown)
VH: QVQLVESGGGLVKPGGSLRLSCAASGFPFSDYYMSWIRQAPGKGLEWVSWISNSGEPIYYADSVKGRFTISRDNAKNSLYLQMNSLRAEDTAVYYCARDEPGWEFDLWGRGTLVTVSS
VL: EIVLTQSPATLSLSPGERATLSCRASQSVSSYLAWYQQKPGQAPRLLIYDASNRATGIPARFSGSGSGTDFTLTISSLEPEDFAVYYCQQRNNWPRTFGQGTKVEIK
notes: Same variable-region description as P1-065333 under another ID; also called P1-072315-1
For the molecule B2, the Kd (in general, the equilibrium constant for the complex coming apart) in assay [3] is 0.35 nM; in assay [4], 0.6 nM; in assay [5] it was 2.5 nM; in assay [6] it was 1.9 nM. For the same molecule, the koff (commonly the first-order rate constant of dissociation) in assay [3] stood at 0.0015 s⁻¹; in assay [4], 0.0016 s⁻¹; in assay [5], 0.00079 s⁻¹; in assay [6], 0.00068 s⁻¹. The kon (usually the rate constant with which the complex forms) in assay [3] stood at 4.2e+06 M⁻¹ s⁻¹; in assay [4] it was 2.7e+06 M⁻¹ s⁻¹; in assay [5] it was 320000 M⁻¹ s⁻¹; in assay [6], 350000 M⁻¹ s⁻¹.

B3: P1-070976 (41F11_VH_T28P/Y50W/S55E/D95H/L96E/P97E/Y100E; Vk_A64G) (antibody, human IgG1, kappa, V domains shown)
VH: B2 VH with D99H, P101E
VL: EIVLTQSPATLSLSPGERATLSCRASQSVSSYLAWYQQKPGQAPRLLIYDASNRATGIPARFSGSGSGTDFTLTISSLEPEDFAVYYCQQRNNWPRTFGQGTKVEIKR
notes: IgG1.3; also called P1-070976-7; acidic pH selective VISTA.4 progeny
With B3, the Kd in assay [7] was 15 nM; in assay [3], 13 nM; in assay [4], 24 nM; in assay [5] it was 2300 nM; in assay [6], 5900 nM; in assay [8], 23 nM. The off-rate constant (koff) in assay [7] stood at 0.0028 s⁻¹; in assay [3] it was 0.0028 s⁻¹; in assay [4] it was 0.0038 s⁻¹; in assay [5], 0.14 s⁻¹; in assay [6], 0.026 s⁻¹; in assay [8], 0.0026 s⁻¹. Also, the association rate constant (kon) in assay [7] is 190000 M⁻¹ s⁻¹; in assay [3] it was 230000 M⁻¹ s⁻¹; in assay [4] it was 160000 M⁻¹ s⁻¹; in assay [5], 61000 M⁻¹ s⁻¹; in assay [6], 4400 M⁻¹ s⁻¹; in assay [8], 110000 M⁻¹ s⁻¹.
